Substitutions are numbered along the chain they refer to.
B1: mAbA4: 5T4 antibody comprising VH of SEQ ID NO:25 and VL of SEQ ID NO:26 (antibody, V domains shown)
VH: EVQLVESGGGLVQPGGSLRLSCAASGFTFSRYYIHWVRQAPGKGLEWVAFISPGGSYTYYADSVKGRFTISADTSKNTAYLQMNSLRAEDTAVYYCAREYYSMGVLDYWGQGTLVTVSS
VL: DIQMTQSPSSLSASVGDRVTITCRASQSVSSAVAWYQQKPGKAPKLLIYSASSLYSGVPSRFSGSRSGTDFTLTISSLQPEDFATYYCQQAYESPYTFGQGTKVEIK
modifications: Antibody mAbA4 VH Sequence; Antibody mAbA4 VL Sequence
B2: mAbA15: 5T4 antibody comprising VH of SEQ ID NO:44 and VL of SEQ ID NO:45 (antibody, V domains shown)
VH: EVQLVESGGGLVQPGGSLRLSCAASGFTFSSYYIHWVRQAPGKGLEWVAYITSTGSYTEYADSVKGRFTISADTSKNTAYLQMNSLRAEDTAVYYCARYDRSTRYSGLDYWGQGTLVTVSS
VL: B1 VL with E93A, S94T, Y96V
modifications: Antibody mAbA15 VH Sequence; Antibody mAbA15 VL Sequence
B3: mAbA17 (antibody, V domains shown)
VH: EVQLVESGGGLVQPGGSLRLSCAASGFTFSRYWIHWVRQAPGKGLEWVAAIFPYSGSTLYADSVKGRFTISADTSKNTAYLQMNSLRAEDTAVYYCARSPSRSILPSGLDYWGQGTLVTVSS
VL: DIQMTQSPSSLSASVGDRVTITCRASQSVSSAVAWYQQKPGKAPKLLIYSASSLYSGVPSRFSGSRSGTDFTLTISSLQPEDFATYYCQQGDGSPYTFGQGTKVEIKR
notes: also called Antibody mAbA17
B4: mAbA4 (antibody, V domains shown)
VH: B1 VH
VL: B3 VL with G91A, D92Y, G93E
notes: also called Antibody mAbA4
B5: mAbA15 (antibody, V domains shown)
VH: B2 VH
VL: B3 VL with G91A, D92Y, G93A, S94T, Y96V
notes: also called Antibody mAbA15
B6: mAbA17: 5T4 antibody comprising VH of SEQ ID NO:62 and VL of SEQ ID NO:63 (antibody, V domains shown)
VH: B3 VH
VL: B1 VL with A91G, Y92D, E93G
modifications: Antibody mAbA17 VH Sequence; Antibody mAbA17 VL Sequence

Key:
[1] = Hydrophobic interaction chromatography (HIC) developability; type: physicochemical; conditions: 1 mg/mL in Dulbecco's PBS pH 7.4
Procedure: Antibodies that were selected for binding to 5T4, such as those described in Examples 2 and 3, were tested by various methods to assess developability. For example, various chromatographic methods, including size exclusion chromatography (SEC), hydrophobic interaction chromatography (HIC), and standup monolayer adsorption chromatography (SMAC) were employed to assess factors, such as monomer percentage, solubility, and antibody aggregation or precipitation.
Hydrophobic interaction chromatography (HIC) analysis was performed using a 4.6 mm ID×3.5 cm TSKgel Butyl-NPR column (Tosoh Bioscience LLC, PN 14947) on an Agilent 1100 HPLC. Antibodies were normalized to 1 mg/mL concentration in Dulbecco's PBS (pH 7.4, without Ca^2+/Mg^2+). The column was equilibrated with 100% mobile phase Buffer A (2 M ammonium sulfate/20 mM sodium phosphate, pH 7.0) at a flow rate of 1 mL/minute at ambient temperature. For each sample, 10 μL was loaded and eluted using a gradient from 100% mobile phase buffer A to 100% mobile phase buffer B (20 mM sodium phosphate, pH 7.0) at 1.0 mL/minute over 15 minutes, held at 100% B for 3 minutes to wash the column, and returned 100% A for 2 minutes for equilibration. Absorbance was monitored at 280 nm. Sample retention time was calculated and compared to a set of standard controls to identify antibodies with increased retention time (increased hydrophobicity) and the presence of multiple species. Data analysis was performed using Agilent ChemStation B.04.03 SP1

[2] = molecular target: T1, unconjugated human TPBG/5T4 protein with a c-terminal polyhistidine and Avi tag (AcroBiosystems Cat. No. … (human, UniProt Q13641 32-355)); assay: ELISA on coated human 5T4 His-Avi (Acro TPG-H52E5); antibody condition: PBS + H2O2 time 24 hr.
T1 construct: Bought protein; also called Acro TPGH52E5; Acro Catalog No. TPGH52E; not shown: C-terminal polyhistidine and Avi tag
T1 sequence: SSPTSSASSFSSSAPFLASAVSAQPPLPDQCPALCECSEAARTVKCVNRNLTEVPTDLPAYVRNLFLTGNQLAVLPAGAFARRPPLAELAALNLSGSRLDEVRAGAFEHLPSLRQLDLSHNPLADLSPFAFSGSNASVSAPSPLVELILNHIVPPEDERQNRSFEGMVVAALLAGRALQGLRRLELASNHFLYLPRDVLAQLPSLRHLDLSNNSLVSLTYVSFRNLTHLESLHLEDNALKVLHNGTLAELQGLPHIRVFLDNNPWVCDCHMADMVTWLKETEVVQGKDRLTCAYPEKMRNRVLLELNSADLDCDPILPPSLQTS
Procedure: (§1) A. Normal Binding Unconjugated antibodies were tested for their ability to bind to human 5T4 (hu5T4) using ELISA. On Day 1, unconjugated human TPBG/5T4 protein with a c-terminal polyhistidine and Avi (AVITAG™) tag (AcroBiosystems (Newark, DE, USA), Cat. No. TPG-H52E5) was diluted 2 μg/mL in PBS, mixed thoroughly, plated 100 μL per well in a 96-well plate (Nunc MAXISORP®) and incubated overnight at 4° C.
3. Oxidative Stress. Several unconjugated antibodies were tested for their ability to bind to 5T4 using ELISA in an oxidative environment. […]

[3] = molecular target: T2, rat 5T4 on transfected HEK293 and CHO cells (rat, UniProt Q5PQV5 32-426); assay: cell binding on transfected HEK293 and CHO cells
T2 construct: whole, on cells
T2 sequence (looked up): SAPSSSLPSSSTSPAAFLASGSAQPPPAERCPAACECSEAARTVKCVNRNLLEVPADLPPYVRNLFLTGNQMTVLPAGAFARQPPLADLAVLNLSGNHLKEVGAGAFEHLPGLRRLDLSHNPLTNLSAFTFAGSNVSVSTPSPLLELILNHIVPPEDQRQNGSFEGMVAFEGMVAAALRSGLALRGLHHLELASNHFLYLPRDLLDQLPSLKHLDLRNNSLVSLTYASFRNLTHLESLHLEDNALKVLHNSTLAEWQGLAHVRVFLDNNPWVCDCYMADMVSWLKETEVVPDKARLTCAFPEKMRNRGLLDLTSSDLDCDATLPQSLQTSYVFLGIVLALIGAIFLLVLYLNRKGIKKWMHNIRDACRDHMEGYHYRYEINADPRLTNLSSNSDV

[4] = molecular target: T1, unconjugated human TPBG/5T4 protein …; assay: Octet, antibody on AHC sensors, human 5T4 in solution (monovalent); Acro TPGH52E5 Lot B465-87AF1-K2
Procedure: Monovalent binding assays were employed to determine the relative affinity of each 5T4 binder obtained by the phage display in Example 1 to human 5T4. Human 5T4 was purchased from Acro Biosystems (Acro Catalog No. TPGH52E) and also produced separately. The monovalent interaction of binders to human 5T4 was monitored using an Octet (Pall ForteBio) instrument. For these assays, 36 nM antibody was immobilized on anti-human Fc (AHC) sensors in 1× kinetic buffer (ForteBio). The sensors were then dipped in wells containing a 3× serial dilution of human 5T4 ranging from 1 μM to 1.37 nM. The association was allowed to reach equilibrium. Sensors were then moved to wells containing only 1× kinetic buffer and allowed to dissociate to equilibrium. Association and dissociation rates were measured and from these, monovalent KDS were calculated using the onboard analysis software (ForteBio).

[5] = molecular target: T1, unconjugated human TPBG/5T4 protein …; assay: ELISA on coated human 5T4 His-Avi (Acro TPG-H52E5); antibody condition: pH 8.5 Day 7
Procedure: as §1

[6] = molecular target: T1, unconjugated human TPBG/5T4 protein …; assay: ELISA on coated human 5T4 His-Avi (Acro TPG-H52E5); antibody condition: pH 5.5 Day 0
Procedure: as §1
2. Low pH Stress Test. Several unconjugated antibodies were tested for their ability to bind to 5T4 using ELISA under acidic (low pH) conditions. Solutions of 1 mg/mL to 10 mg/mL of antibody in […] were prepared and stored at 37° C. for 1 to 2 weeks.

| Molecule | developability based on HIC analysis [1] | EC50 [2] [nM] | binding result [3] | Kd [4] [nM] | EC50 [5] [nM] | EC50 [6] [nM] |
| --- | --- | --- | --- | --- | --- | --- |
| B1 | strong developability |  |  |  |  |  |
| B2 | strong developability |  |  |  |  |  |
| B3 |  | 0.183 | no binding | 2.81 | 0.158 | 0.164 |
| B4 |  | 0.393 | no binding | 0.01 | 0.128 | 0.133 |
| B5 |  | 0.19 | no binding | 3.62 | 0.143 | 0.124 |
| B6 | strong developability |  |  |  |  |  |
